Source: patent US8357833B2, “Corn plants and seed enhanced for asparagine and protein” (priority 2007, dated 2013)

Substrate: N[C@@H](CC(=O)O)C(=O)O
Assay: Kinetics of recombinant his-tagged, refolded maize asparagine synthetase AsnS4 (substrate titration, asparagine by HPLC)
Format: biochemical, Zea mays
Settings: other: Zm AsnS4, 100 mM Hepes, pH 8.0, 10 mM MgCl2
Method: To assay asparagine synthetase activity, desalted protein extracts (10-50 μL) were added to wells containing 100 μL assay solution (100 mM Hepes, pH 8.0, 10 mM MgCl2, 2 mM aspartate, 5 mM DTT, 10 mM ATP, 1 mM amino(oxy)acetic acid (aspartate amino transferase inhibitor), 1 mM aspartic semialdehyde (asparaginase inhibitor). To start the reaction, glutamine (final concentration of 2 mM for standard assay) was added to the solution, which was then mixed. The assay mixture was then incubated for 1 to 2 hours. The reaction was then stopped by the addition of an equal volume of 20% (w/v) trichloroacetic acid. The mixture was then filtered to remove precipitate and asparagine was measured by HPLC. Sample size was increased from 0.5 μL to 2.5 μL for HPLC, excitation wavelength was reduced from 340 nm to 235 nm, and fluorimeter gain was increased from 10 to 13.
This example describes the cloning of the nucleotide sequence for AsnS1 (SEQ ID NO: 1), AsnS2 (SEQ ID NO: 3), AsnS3 (SEQ ID NO: 5) and AsnS4 (SEQ ID NO: 50) into E. coli expression vectors, as well as the expression, purification and kinetics of the recombinant forms of the four AsnS isoforms.
These vectors are expected to produce recombinant proteins with C-terminal histidine tags.
The E. coli expression vectors described in the previous paragraph were used to transform Rosetta DE5™ E. coli cells (Novagen). […]

B1: Zea mays asparagine synthetase Zm AsnS4 (SEQ ID NO: 51, encoded by SEQ ID NO: 50) (Zea mays) (protein)
chain: MCGILAVLGCSDCSQARRARILACSRRLKHRGPDWSGLYQHEGNFLAQQRLAIVSPLSGDQPLFNEDRTVVVVANGEIYNHKNVRKQFTGAHSFSTGSDCEVIIPLYEKYGENFVDMLDGVFAFVLYDTRDRTYVAARDAIGVNPLYIGWGSDGSVWMSSEMKALNEDCVRFEIFPPGHLYSSAGGGFRRWYTPHWFQEQVPRTPYQSLVLREAFEKAVIKRLMTDVPFGVLLSGGLDSSLVASVTKRHLVETDAAEKFGTELHSFVVGLEGSPDLKAAREVADYLGTTHHEFHFTVQDGIDAIEEVIYHDETYDVTTIRASTPMFLMARKIKSLGVKMVLSGEGSDELLGGYLYFHFAPNREELHRETCRKVKALHQYDCLRANKATSAWGLEVRVPFLDKEFVDVAMGMDPEWKMYDKNLGRIEKWVLRKAFDDEEHPYLPEHILYRQKEQFSDGVGYNWIDGLKSFTEQQVTDEMMNSAAQMFPYNTPVNKEAYYYRMIFERLFPQDSARETVPWGPSIACSTPAAIEWVEQWKASNDPSGRFISSHDSAATDRTGDKLAVANGGGHGAANGTVNGNDVAVAIAV
notes: 588 aa
For B1, the Km was 930 µM.
